Measured values taken from IntAct's records for PubMed 9162036.

Target: ap2m1_rat Ap2m1 (UniProt P84092)
Sequence (P84092 whole entry): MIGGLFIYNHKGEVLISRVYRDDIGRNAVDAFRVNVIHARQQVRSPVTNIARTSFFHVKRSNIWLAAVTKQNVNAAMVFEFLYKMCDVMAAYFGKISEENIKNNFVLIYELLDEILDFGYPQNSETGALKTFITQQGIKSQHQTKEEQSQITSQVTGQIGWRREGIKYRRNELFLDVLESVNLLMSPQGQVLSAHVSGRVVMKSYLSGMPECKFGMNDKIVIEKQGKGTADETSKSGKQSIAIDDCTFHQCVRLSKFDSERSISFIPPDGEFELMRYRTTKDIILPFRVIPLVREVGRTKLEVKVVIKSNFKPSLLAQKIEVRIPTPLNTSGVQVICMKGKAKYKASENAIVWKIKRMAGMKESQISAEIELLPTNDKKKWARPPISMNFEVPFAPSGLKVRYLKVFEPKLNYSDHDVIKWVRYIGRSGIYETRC

Trans-Golgi network integral membrane protein TGN38 (Rattus norvegicus (Rat)), P19814 Y350A, sequence (P19814 whole entry Y350A): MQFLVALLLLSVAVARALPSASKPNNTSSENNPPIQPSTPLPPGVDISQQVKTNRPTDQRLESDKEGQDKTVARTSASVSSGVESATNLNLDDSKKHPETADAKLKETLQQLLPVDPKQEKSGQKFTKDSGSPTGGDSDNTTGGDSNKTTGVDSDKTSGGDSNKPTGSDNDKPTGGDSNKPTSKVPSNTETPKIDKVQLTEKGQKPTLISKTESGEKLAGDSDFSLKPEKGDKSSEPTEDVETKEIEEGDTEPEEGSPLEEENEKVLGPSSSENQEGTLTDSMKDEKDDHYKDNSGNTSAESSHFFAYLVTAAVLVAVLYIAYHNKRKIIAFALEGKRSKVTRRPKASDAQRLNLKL
Trans-Golgi network integral membrane protein TGN38 (Rattus norvegicus (Rat)), P19814 S348A, sequence (P19814 whole entry S348A): as the sequence (P19814 whole entry Y350A) above, with S348A, A350Y counted along it

Substance	effect of a mutation on the interaction
Trans-Golgi network integral membrane protein TGN38 (Rattus norvegicus (Rat)), P19814 S348A	decreasing interaction
Trans-Golgi network integral membrane protein TGN38 (Rattus norvegicus (Rat)), P19814 Y350A	decreasing interaction
